B1: TM2 domain of in the TOXCAT construct (between MBP and ToxR) [guinea pig] / itself (parent)
chain: WVFVNAGGWMGAMCLLHASL

Variants of: B1
Assay: TOXCAT
Conditions: with itself;; read off a plot
Work on chain 1 G8L yielded a response of 89 %GpA.
chain 1 G8I showed a response of 100 %GpA.
For chain 1 H17A, the response was 20 %GpA.
For chain 1 G7L, the response was 77 %GpA.
chain 1 G7I showed a response of 94 %GpA.
chain 1 G7L G8L gave a response of -2.7 %GpA.
